Source: paper PMC13083842

Target: interleukin-6 (IL-6) (human) (UniProt P05231)
Assay: SPR; IL-6 amine-coupled on a CM5 chip (Biacore T200); analytes in multi-cycle kinetics, 0.39 to 100 nM, 30 µL/min, 180 s association, 1200 s dissociation, HBS-N + 10 mM CaCl2; global fit, 1:1 model; where koff was below the detection limit KD was estimated from kon and the theoretical maximum koff

interleukin-6 (IL-6) (human), sequence (P05231 30-212): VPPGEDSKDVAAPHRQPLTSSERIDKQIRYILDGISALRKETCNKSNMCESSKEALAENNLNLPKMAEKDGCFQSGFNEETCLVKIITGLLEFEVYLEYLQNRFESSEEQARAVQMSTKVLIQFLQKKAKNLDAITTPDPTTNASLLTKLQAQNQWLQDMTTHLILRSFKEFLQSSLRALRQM

Kd [nM]	koff [s⁻¹]	kon [M⁻¹ s⁻¹]	Substance
428	–	–	sIL-6R-TGN 1:5 (from UniProt P08887 20-355) (receptor)
131	0.035	248000	soluble IL-6 receptor (sIL-6R) (from UniProt P08887 20-355)
